Laboratory results from US10941182 (Amgen, dated 2021).
Starred links: 1 amine or outer side, 2 acyl side, 3 side chain; linkers in the order of their positions; H or OH if unused. Non-standard residues stand in square brackets, D forms with d. Primed or numbered codes have the meaning given here. *: point of attachment. dBip = N[C@H](Cc1ccc(-c2ccccc2)cc1)C(=O)O; Oic = O=C(O)[C@@H]1C[C@@H]2CCCC[C@@H]2N1; Phe(4-Cl) = N[C@@H](Cc1ccc(Cl)cc1)C(=O)O; dPhe(4-Cl) = N[C@H](Cc1ccc(Cl)cc1)C(=O)O; Heptadecanoyl = CCCCCCCCCCCCCCCCC(=O)*; Phe(4-I) = N[C@@H](Cc1ccc(I)cc1)C(=O)O; γGlu = O=C(O)[C@H](CCC(=O)[*:2])N[*:1]; NMeR = CN[C@@H](CCCNC(=N)N)C(=O)O; Tridecanoyl = CCCCCCCCCCCCC(=O)*; hArg = N=C(N)NCCCC[C@H](N)C(=O)O; Tic = O=C(O)[C@@H]1Cc2ccccc2CN1; Cha = N[C@@H](CC1CCCCC1)C(=O)O; NMeL = CN[C@@H](CC(C)C)C(=O)O; Nle = CCCC[C@H](N)C(=O)O; Pip′ = not defined here; AEEA = NCCOCCOCC(=O)O

T1: rat APJ receptor (rat, UniProt Q9JHG3 1-377)
T1 sequence (looked up): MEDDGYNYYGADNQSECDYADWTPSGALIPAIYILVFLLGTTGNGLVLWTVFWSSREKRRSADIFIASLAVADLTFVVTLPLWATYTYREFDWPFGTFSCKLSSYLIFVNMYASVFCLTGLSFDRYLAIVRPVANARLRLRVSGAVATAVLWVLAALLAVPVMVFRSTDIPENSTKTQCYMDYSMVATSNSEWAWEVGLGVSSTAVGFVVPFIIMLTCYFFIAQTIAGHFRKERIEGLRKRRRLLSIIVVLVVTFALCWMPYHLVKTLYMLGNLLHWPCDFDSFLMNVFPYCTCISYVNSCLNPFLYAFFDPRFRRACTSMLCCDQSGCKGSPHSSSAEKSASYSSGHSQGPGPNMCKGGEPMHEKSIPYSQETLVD

T2: human APJ receptor (human, UniProt P35414 1-380)
T2 sequence (looked up): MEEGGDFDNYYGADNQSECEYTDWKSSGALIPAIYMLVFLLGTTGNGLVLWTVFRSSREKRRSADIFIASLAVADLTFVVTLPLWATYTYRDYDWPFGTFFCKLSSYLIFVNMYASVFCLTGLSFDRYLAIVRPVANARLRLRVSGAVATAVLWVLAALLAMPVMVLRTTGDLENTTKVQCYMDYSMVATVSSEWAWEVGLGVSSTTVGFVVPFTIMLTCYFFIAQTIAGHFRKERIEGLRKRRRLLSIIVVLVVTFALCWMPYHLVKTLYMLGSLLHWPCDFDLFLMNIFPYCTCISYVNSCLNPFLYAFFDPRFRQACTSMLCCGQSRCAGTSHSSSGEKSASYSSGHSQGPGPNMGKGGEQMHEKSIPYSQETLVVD


How the values were obtained:
rat APJ receptor = biological target: T1, rat APJ receptor; test: cell-based or functional assay
human APJ receptor = biological target: T2, human APJ receptor; test: cell-based or functional assay

Binder	EC50 Rat APJ Receptor (rat APJ receptor) [nM]	EC50 Human APJ Receptor (human APJ receptor) [nM]
Heptadecanoyl-[γGlu][AEEA][AEEA][hArg][dQ][hArg]P[NMeR][Cha]SHKG[Oic][Nle]P[dPhe(4-Cl)]-OH (SMILES CCCCCCCCCCCCCCCCC(=O)N[C@@H](CCC(=O)NCCOCCOCC(=O)NCCOCCOCC(=O)N[C@@H](CCCCNC(=N)N)C(=O)N[C@H](CCC(N)=O)C(=O)N[C@@H](CCCCNC(=N)N)C(=O)N1CCC[C@H]1C(=O)N(C)[C@@H](CCCNC(=N)N)C(=O)N[C@@H](CC1CCCCC1)C(=O)N[C@@H](CO)C(=O)N[C@@H](Cc1c[nH]cn1)C(=O)N[C@@H](CCCCN)C(=O)NCC(=O)N1[C@H](C(=O)N[C@@H](CCCC)C(=O)N2CCC[C@H]2C(=O)N[C@H](Cc2ccc(Cl)cc2)C(=O)O)C[C@@H]2CCCC[C@@H]21)C(=O)O) [apelin polypeptide SEQ ID NO: 242]	2.27	2.19
Heptadecanoyl-[γGlu][AEEA][AEEA][hArg]Q[dR]P[NMeR][Cha]SHKG[Oic][Nle]P[Tic]-OH (SMILES CCCCCCCCCCCCCCCCC(=O)N[C@@H](CCC(=O)NCCOCCOCC(=O)NCCOCCOCC(=O)N[C@@H](CCCCNC(=N)N)C(=O)N[C@@H](CCC(N)=O)C(=O)N[C@H](CCCNC(=N)N)C(=O)N1CCC[C@H]1C(=O)N(C)[C@@H](CCCNC(=N)N)C(=O)N[C@@H](CC1CCCCC1)C(=O)N[C@@H](CO)C(=O)N[C@@H](Cc1c[nH]cn1)C(=O)N[C@@H](CCCCN)C(=O)NCC(=O)N1[C@H](C(=O)N[C@@H](CCCC)C(=O)N2CCC[C@H]2C(=O)N2Cc3ccccc3C[C@H]2C(=O)O)C[C@@H]2CCCC[C@@H]21)C(=O)O) [apelin polypeptide SEQ ID NO: 243]	10.3	1.19
Heptadecanoyl-[γGlu][AEEA][AEEA][hArg]Q[dR]P[NMeR][Cha]SHKG[Oic][Nle][Pip′][Phe(4-Cl)]-OH [apelin polypeptide SEQ ID NO: 239]	8.61	1.45

Other lines, results leading:

EC50 Rat APJ Receptor (rat APJ receptor) [nM]	EC50 Human APJ Receptor (human APJ receptor) [nM]	Binder
28.5	6.68	Heptadecanoyl-[γGlu][AEEA][AEEA]Q[dR]P[NMeR][Cha]SHKG[Oic][Nle]P[Tic]-OH (SMILES CCCCCCCCCCCCCCCCC(=O)N[C@@H](CCC(=O)NCCOCCOCC(=O)NCCOCCOCC(=O)N[C@@H](CCC(N)=O)C(=O)N[C@H](CCCNC(=N)N)C(=O)N1CCC[C@H]1C(=O)N(C)[C@@H](CCCNC(=N)N)C(=O)N[C@@H](CC1CCCCC1)C(=O)N[C@@H](CO)C(=O)N[C@@H](Cc1c[nH]cn1)C(=O)N[C@@H](CCCCN)C(=O)NCC(=O)N1[C@H](C(=O)N[C@@H](CCCC)C(=O)N2CCC[C@H]2C(=O)N2Cc3ccccc3C[C@H]2C(=O)O)C[C@@H]2CCCC[C@@H]21)C(=O)O) [apelin polypeptide SEQ ID NO: 238]
281	10.3	Tridecanoyl-[γGlu][AEEA][AEEA]Q[dR]P[NMeR][Cha]SHKG[Oic][Nle]P[Tic]-OH (SMILES CCCCCCCCCCCCC(=O)N[C@@H](CCC(=O)NCCOCCOCC(=O)NCCOCCOCC(=O)N[C@@H](CCC(N)=O)C(=O)N[C@H](CCCNC(=N)N)C(=O)N1CCC[C@H]1C(=O)N(C)[C@@H](CCCNC(=N)N)C(=O)N[C@@H](CC1CCCCC1)C(=O)N[C@@H](CO)C(=O)N[C@@H](Cc1c[nH]cn1)C(=O)N[C@@H](CCCCN)C(=O)NCC(=O)N1[C@H](C(=O)N[C@@H](CCCC)C(=O)N2CCC[C@H]2C(=O)N2Cc3ccccc3C[C@H]2C(=O)O)C[C@@H]2CCCC[C@@H]21)C(=O)O) [apelin polypeptide SEQ ID NO: 244]
0.757	0.533	Ac-[hArg][hArg][dQ][hArg]P[dR][NMeL]SHKG[Oic][Phe(4-I)]P[dBip]-OH [apelin polypeptide SEQ ID NO: 19]
